According to patent publication US20100183520A1:

Target: UNC5B netrin-1 receptor on mouse leukocytes / CD4+ T cells (mouse) (UniProt Q8K1S3)
Assay: cell-based or functional assay

UniProt Q8K1S3, sequence (Q8K1S3 27-945): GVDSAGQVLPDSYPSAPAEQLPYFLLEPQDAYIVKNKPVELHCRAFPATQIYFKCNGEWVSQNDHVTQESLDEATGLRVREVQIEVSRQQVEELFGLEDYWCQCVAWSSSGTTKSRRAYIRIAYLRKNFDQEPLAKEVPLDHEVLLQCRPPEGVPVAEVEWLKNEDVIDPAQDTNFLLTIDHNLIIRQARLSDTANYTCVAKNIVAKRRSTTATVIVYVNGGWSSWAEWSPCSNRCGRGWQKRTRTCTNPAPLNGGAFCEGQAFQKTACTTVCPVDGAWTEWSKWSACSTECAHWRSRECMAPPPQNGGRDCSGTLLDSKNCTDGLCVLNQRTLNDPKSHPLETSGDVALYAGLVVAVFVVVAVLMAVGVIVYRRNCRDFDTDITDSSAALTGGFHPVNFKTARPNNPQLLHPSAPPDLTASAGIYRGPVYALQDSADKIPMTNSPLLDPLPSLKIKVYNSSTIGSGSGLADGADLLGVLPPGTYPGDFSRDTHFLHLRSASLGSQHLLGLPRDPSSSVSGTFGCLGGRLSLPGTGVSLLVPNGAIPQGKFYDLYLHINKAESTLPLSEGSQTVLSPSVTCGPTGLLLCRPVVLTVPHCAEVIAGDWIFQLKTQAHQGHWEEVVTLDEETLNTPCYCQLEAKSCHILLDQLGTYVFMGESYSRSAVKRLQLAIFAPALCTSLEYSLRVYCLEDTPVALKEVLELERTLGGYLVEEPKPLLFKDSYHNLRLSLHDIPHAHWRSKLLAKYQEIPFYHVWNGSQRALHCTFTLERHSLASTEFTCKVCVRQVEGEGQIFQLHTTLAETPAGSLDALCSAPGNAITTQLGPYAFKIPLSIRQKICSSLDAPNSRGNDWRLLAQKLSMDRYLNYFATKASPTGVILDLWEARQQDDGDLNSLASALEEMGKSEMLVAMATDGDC

“recombinant netrin-1 (R&D Systems) (ligand)” gave an inhibition of anti-CD3 stimulated cytokine production in CD4+CD25- T cells: netrin-1 concentration with maximal inhibition of 500 ng/mL and an inhibition of anti-CD3 stimulated cytokine production in CD4+CD25- T cells: netrin-1 concentration with minimal effect of 100 ng/mL.
